These results are taken from patent publication US20210079087A1 (REMD BIOTHERAPEUTICS, published 2021).

Residue numbers refer to the chain shown, from its start.

One assay concerns the target T1, cyno primate IL-17A (cyno primate, UniProt A0A2K5TTB0 24-155).
T1 construct: Antigen of the primate crossreactivity ELISA; construct not described; also called Cy IL-17
In words: ELISA, binding to cyno IL-17A. Background: ELISA stands for enzyme-linked immunosorbent assay.

For another assay, the target named is T2, murine IL-17A (murine, UniProt Q62386 26-158, limits assumed).
T2 construct: Antigen of the murine IL-17A crossreactivity ELISA; construct not described; also called mouse IL-17A
T2 sequence (looked up): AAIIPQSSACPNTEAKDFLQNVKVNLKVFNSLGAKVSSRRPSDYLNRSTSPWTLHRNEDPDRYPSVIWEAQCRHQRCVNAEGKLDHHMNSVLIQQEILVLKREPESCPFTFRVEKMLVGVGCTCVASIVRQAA
Kind of assay: murine IL-17A crossreactivity ELISA.

Assay [1] has as its target T3, human IL-17A (human, UniProt Q16552 24-155).
T3 construct: The immunogen was IL-17A protein, R&D Systems Cat #3012; also called Interleukin-17A; Hu IL-17
Kind of assay: IL-17A/IL-17R blocking ELISA.

The target in assay [2] is T3, human IL-17A. In words: ELISA, binding to human IL-17A.
For assay [3], the target named is T3, human IL-17A. In words: cell-based or functional assay.
The target in assay [4] is T3, human IL-17A. Kind of assay: SPR, Biacore 8k; antibody amine-coupled to the chip, IL-17A as analyte. As to the method: (§1) The recombinant IgGs secreted to the medium and were purified using protein A affinity chromatography. […] Antibodies were immobilized on the sensor chip through amine coupling method. […] The data of dissociation (kd) and association (ka) rate constants were obtained using Biacore 8k evaluation software. The equilibrium dissociation constants (KD) were calculated from the ratio of kd over ka.
(Surface plasmon resonance follows binding to a sensor surface in real time, without labels.)

Assay [5] deals with T3, human IL-17A. In words: cell-based or functional assay. The source holds these as a separate data set.
For assay [6], the target named is T3, human IL-17A. In words: SPR, Biacore 8k; antibody amine-coupled to the chip, IL-17A as analyte; first of two Chimeric Ab rows (ka 1.94E+06). How it is done: as §1
The target of assay [7] is T3, human IL-17A. Kind of assay: SPR, Biacore 8k; antibody amine-coupled to the chip, IL-17A as analyte (second, unlabelled row). As to the method: as §1
Assay [8] deals with T3, human IL-17A. Kind of assay: SPR, Biacore T200; antibody amine-coupled to the chip, IL-17A as analyte. As to the method: The data of dissociation (kd) and association (kₐ) rate constants were obtained using Biacore T200 evaluation software. The equilibrium dissociation constants (KD) were calculated from the ratio of kd over kₐ.
Assay [9] has as its target T3, human IL-17A. Kind of assay: SPR, Biacore 8k; antibody amine-coupled to the chip, IL-17A as analyte (second, unlabelled row); second, unlabelled row under Chimeric Ab. How it is done: as §1

T3 sequence (Q16552 24-155 limits assumed): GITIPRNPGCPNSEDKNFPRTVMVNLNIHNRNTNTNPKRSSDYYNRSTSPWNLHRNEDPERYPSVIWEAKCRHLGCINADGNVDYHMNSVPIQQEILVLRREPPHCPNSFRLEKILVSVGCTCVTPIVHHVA
T1 sequence (A0A2K5TTB0 entry or part of it): as the sequence (Q16552 24-155 limits assumed) above, with T3A, P8S, N34S, I77V, N78K, P104R counted along it

B1: 4H11C7 (antibody, mouse IgG1, V domains shown)
VH: QVTLKESGPGILQPSQTLSLTCSFSGFSLNTFGMGVDWIRQPSGKGLEWLAHIWWDDDKYYNPALESRLTISKDASKNQVFLKIANVDTADTATYYCSRRELGPYFFDYWGQGTTLTVSS
VL: GVLMTQTPLSLPVSLGDQASISCRSSQSIVHSNGNTYLEWYLQKPGQSPKLLIYKVSNRFSGVPDRFSGSGSGTDFTLKINRVEAEDLGVYYCFQGSHFPYTFGGGTKLEID
notes: amino acids 1-19 are stated as the leader; also called A1
For B1, the values for the EC50 with cyno primate IL-17A and with human IL-17A [2] were 16 pM and 190 pM, respectively. For the same molecule, the binding result with murine IL-17A is on record as “no binding”. For the same molecule, in the assay with human IL-17A [1], the IC50 (in general, the concentration needed to halve the response being measured) was 2440 pM. Besides, the “IC50 (nM), IL6 production by TNFα-primed NIH3T3 cells stimulated with human IL-17A” value (shortened to “IC50 (nM), IL6 production”) with human IL-17A [3] worked out at 0.953 nM.

B2: REMD 155.1 (antibody, human IgG4 S228P, kappa, V domains shown)
VH: QVQLVQSGAEVKKPGASVKVSCKASGFTFTDYYMNWVRQAPGQGLEWMGDINPKNGGTIFNQNFRGRVTMTRDTSISTAYMELSRLRSDDTAVYYCARSILTGPFYFDYWGQGTLVTVSS
VL: DIVMTQSPDSLAVSLGERATINCKASQSVSFAGTGLMHWYQQKPGQQPKLLIYRASNLEAGVPDRFSGSGSGTDFTLTISSLQAEDVAVYYCQQTMEYPTFGGGTKLEIKR
notes: Humanized antibody derived from 23A4D8; also called IgG 2 (H1/L2); H1 + L2
Turning to B2, in the assay with human IL-17A [4], the Kd (as a rule, the free concentration of one partner at which half of the binding sites on the other are occupied at equilibrium, for simple one-to-one binding) is ≤ 3.61 pM; the koff (as a rule, the rate constant with which the complex falls apart) was ≤ 1e-05 s⁻¹; the kon (commonly the rate constant with which the complex forms) was found to be 2.77e+06 M⁻¹ s⁻¹. In addition, the “IC50 (nM), NIH3T3 in vitro functional assay described in Example 1 (IL-6 production)” value (shortened to “IC50 (nM), NIH3T3”) with human IL-17A [5] came to 0.995 nM.

B3: REMD 155 (antibody, human IgG4 S228P, kappa, V domains shown)
VH: B2 VH
VL: B2 VL with Q47P
notes: Humanized antibody derived from 23A4D8; also called IgG 1 (H1/L1); H1 + L1
As for B3, in the assay with human IL-17A [4], the Kd was found to be 5.52 pM, the koff worked out at 1.35e-05 s⁻¹ and the kon was 2.45e+06 M⁻¹ s⁻¹. For the same molecule, in the assay with human IL-17A [5], the “IC50 (nM), NIH3T3” value is 0.88 nM.

B4: REMD 155.2 (antibody, human IgG4 S228P, kappa, V domains shown)
VH: B2 VH
VL: B2 VL with M4L, L82V
notes: Humanized antibody derived from 23A4D8; also called IgG 4 (H1/L4); H1 + L4
As to B4, in the assay with human IL-17A [4], the Kd was ≤ 3.46 pM, the koff is ≤ 1e-05 s⁻¹ and the kon came out at 2.89e+06 M⁻¹ s⁻¹. In the assay with human IL-17A [5], the “IC50 (nM), NIH3T3” value came out at 0.975 nM.

B5: 22E2G4 (antibody, mouse IgG1, V domains shown)
VH: QVQLQQPGAELVMPGTSVRLSCKASGYTFTSYWMHWVKQRPGQGLEWIGEIDPSDTYTNYNPKFKGKATLTVDKSSSTAYMQFTSLTSEDSAVYYCARSGIYYDYYEDYWGQGTTLTVSS
VL: DVVMTQTPLSLPVSLGDQASISCRSSQILLHSNGNTYLHWYLQKPGQSPKLLIYKVSNRFSGVPDRFSGSGSGTDFTLKISRVEAEDLGVYFCSQSVHVPTFGGGTKLEIK
notes: amino acids 1-19 are stated as the leader; also called A3
For B5, the figures for the EC50 with cyno primate IL-17A and with human IL-17A [2] were 13 pM and 150 pM, respectively. Further, the binding result with murine IL-17A is recorded as “no binding”. The molecule also had an IC50 with human IL-17A [1] of 3040 pM. In addition, the “IC50 (nM), IL6 production” value in the assay with human IL-17A [3] came to 0.534 nM.

B6: 26G11B11 (antibody, mouse IgG1, V domains shown)
VH: B5 VH with T16A, R19K, S25A, T56S, P62Q, F83L, T84S
VL: B5 VL with I28S, L30V, V97I
notes: amino acids 1-19 are stated as the leader; also called A6
On to B6, for which the EC50 (in general, the concentration giving half of the maximal effect) with cyno primate IL-17A was determined as 12 pM; in the assay with human IL-17A [2], 120 pM. In addition, the binding result in the assay with murine IL-17A is on record as “no binding”. For the same molecule, half-maximal inhibition with human IL-17A [1] (IC50) required 2190 pM. The “IC50 (nM), IL6 production” value in the assay with human IL-17A [3] is 0.544 nM.

B7: 24F11E4 (antibody, mouse IgG1, V domains shown)
VH: B5 VH with T16A, S31N, M34I, Y57F, N61S, F83L, S85G, Y95F
VL: B5 VL with A19V, E86D
notes: amino acids 1-19 are stated as the leader; also called A5
With B7, the EC50 was 10 pM with cyno primate IL-17A and 160 pM with human IL-17A [2]. Also, the binding result with murine IL-17A is “no binding”. Besides, the IC50 with human IL-17A [1] was determined as 2150 pM. In the assay with human IL-17A [3], the “IC50 (nM), IL6 production” value is 0.138 nM.

B8: 23A4D8 (antibody, mouse IgG2a, V domains shown)
VH: EVQLQQSGPELVKPGASVKISCKASGFTFTDYYMNWMKQSHGKSLEWIGDINPKNGGTIFNQNFRGKATLTVDKSSSTAYMELRSLTSEDSAVYYCARSILTGPFYFDYWGQGTTLTVSS
VL: DIVLTQSPASLAVSLGQRAIISCKASQSVSFAGTGLMHWYQQKSGQQPKLLISRASNLEAGVPTRFSGSGSRTDFTLNIHPVEEDDAATYYCQQTMEYPTFGGGTKLEIK
notes: also called Murine 23A4D8; parental
For B8, in the assay with human IL-17A [4], binding was put at a Kd of 4.89 pM, the koff is 1.22e-05 s⁻¹ and the kon turned out to be 2.5e+06 M⁻¹ s⁻¹. The EC50 with cyno primate IL-17A was found to be 4 pM. For the same molecule, the binding result in the assay with murine IL-17A is reported as “no binding”. In the assay with human IL-17A [1], this molecule came in with an IC50 of 2070 pM. The molecule also returned an EC50 in the assay with human IL-17A [2] of 80 pM. Further, the “IC50 (nM), NIH3T3” value with human IL-17A [5] is 0.703 nM. In addition, the “IC50 (nM), IL6 production” value with human IL-17A [3] stood at 0.581 nM.

B9: chimeric IgG4 (murine-human chimeric antibody derived from murine antibody A4 and human IgG4) (antibody, V domains shown)
VH: B8 VH
VL: DIVLTQSPASLAVSLGQRAIISCKASQSVSFAGTGLMHWYQQKSGQQPKLLISRASNLEAGVPTRFSGSGSRTDFTLNIHPVEEDDAATYYCQQTMEYPTFGGGTKLEIKR
notes: also called Chimeric Ab
As to B9, the koff with human IL-17A [6] is ≤ 1e-05 s⁻¹; in the assay with human IL-17A [7], 1e-05 s⁻¹; with human IL-17A [8], ≤ 1e-05 s⁻¹. The results for the Kd with human IL-17A [4], with human IL-17A [7] and with human IL-17A [8] were 5.15 pM, 4.39 pM and ≤ 4.93 pM, respectively. Further, the kon with human IL-17A [4] was determined as 1.94e+06 M⁻¹ s⁻¹; with human IL-17A [8], 2.03e+06 M⁻¹ s⁻¹; in the assay with human IL-17A [9] it was 2.28e+06 M⁻¹ s⁻¹.

B10: 8A5G4 (antibody, V domains shown)
VH: QVELKESGPGLVAPSQSLSITCTVSGFSLTSYGVYWVRQPPGKGLEWLVVIWSDGTTTYNSALKSRLSISKDNSKSQVFLKMNSLQTDDTAMYYCARQGDNYSYAVDYWGQGTAVTVSS
VL: DVVMIQIPLSLPVSLGDQASISCRSSQSLVHSNGNTYLHWYLQKPGQSPKLLIYKVFNRFSGVPDRFSGSGSGTDFTLKISRVEAEDLGVYFCSQSTHAPLTFGAGTKLELK
notes: amino acids 1-19 are stated as the leader; also called A2
With B10, the EC50 is 8 pM with cyno primate IL-17A and 100 pM in the assay with human IL-17A [2]. In the assay with murine IL-17A, the binding result was “no binding”. The IC50 with human IL-17A [1] was 1650 pM. The “IC50 (nM), IL6 production” value in the assay with human IL-17A [3] came out at 0.47 nM.
